Patent US20180298361A1 (CHO PHARMA, published 2018)

B1: Commercial Rituximab (antibody, human IgG1, kappa)
heavy: not shown
light: QIVLSQSPAILSASPGEKVTMTCRASSSVSYIHWFQQKPGSSPKPWIYATNLASGVPVRFSGSGSGTSYSLTISRVEAEDAATYYCQQWTSNPPTFGGGTKLEIKRTVAAPSVFIFPPSDEQLKSGTASVVCLLNNFYPREAKVQWKVDNALQSGNSQESVTEQDSKDSTYSLSSTLTLSKADYEKHKVYACEVTHQGLSSPVTKSFNRGEC
modifications: heterogeneous Fc N-glycans at N297: core-fucosylated biantennary complex type oligosaccharides carrying 0-2 galactose (G0F, G1F, G2F)
notes: DrugBank DB00073; also called non-modified Rituximab; original Rituximab
B2: Rtx-G2 (antibody, human IgG1, kappa)
heavy: not shown
light: B1 light
modifications: homogeneous non-fucosylated N-glycan G2 (high mannose type, Man9GlcNAc2) at Asn-297
notes: also called glycoengineered Rituximab G2; Man9GlcNAc2 glycoform
B3: Rtx-G16 (antibody, human IgG1, kappa)
heavy: not shown
light: B1 light
modifications: homogeneous non-fucosylated N-glycan G16 (bi-antennary complex type with terminal alpha-2,6 sialic acids) at Asn-297
notes: also called glycoengineered Rituximab G16; bi-antennary complex type glycoform
B4: Rtx-G7 (antibody, human IgG1, kappa)
heavy: not shown
light: B1 light
modifications: homogeneous non-fucosylated N-glycan G7 (bi-antennary complex type with terminal di-galactose) at Asn-297
notes: also called glycoengineered Rituximab G7; bi-antennary complex type glycoform
B5: Rtx-G13 (antibody, human IgG1, kappa)
heavy: not shown
light: B1 light
modifications: homogeneous N-glycan G13 (bi-antennary complex type; structure only in FIG. 15) at Asn-297
notes: also called glycoengineered Rituximab G13; bi-antennary complex type glycoform
B6: Rtx-G5 (antibody, human IgG1, kappa)
heavy: not shown
light: B1 light
modifications: homogeneous non-fucosylated N-glycan G5 (tri-antennary complex type with terminal galactose residues) at Asn-297
notes: also called glycoengineered Rituximab G5; tri-antennary complex type glycoform
B7: Rtx-G8 (antibody, human IgG1, kappa)
heavy: not shown
light: B1 light
modifications: homogeneous non-fucosylated N-glycan G8 (bi-antennary complex type with bisected GlcNAc and terminal di-galactose) at Asn-297
notes: also called glycoengineered Rituximab G8; bi-antennary complex type glycoform
B8: Rtx-G6 (antibody, human IgG1, kappa)
heavy: not shown
light: B1 light
modifications: homogeneous non-fucosylated N-glycan G6 (tri-antennary complex type with terminal alpha-2,6 sialic acids) at Asn-297
notes: also called glycoengineered Rituximab G6; tri-antennary complex type glycoform
B9: Rtx-G9 (antibody, human IgG1, kappa)
heavy: not shown
light: B1 light
modifications: homogeneous N-glycan G9 without core fucose (bi-antennary complex type with alpha 1,2 fucose on one of the two terminal galactose) at Asn-297
notes: also called glycoengineered Rituximab G9; bi-antennary complex type glycoform
B10: Rtx-G12 (antibody, human IgG1, kappa)
heavy: not shown
light: B1 light
modifications: homogeneous N-glycan G12 (bi-antennary complex type; structure only in FIG. 15) at Asn-297
notes: also called glycoengineered Rituximab G12; bi-antennary complex type glycoform
B11: Rtx-G15 (antibody, human IgG1, kappa)
heavy: not shown
light: B1 light
modifications: homogeneous N-glycan G15 (bi-antennary complex type; structure only in FIG. 15) at Asn-297
notes: also called glycoengineered Rituximab G15; bi-antennary complex type glycoform
B12: Rtx-G11 (antibody, human IgG1, kappa)
heavy: not shown
light: B1 light
modifications: homogeneous N-glycan G11 (bi-antennary complex type; structure only in FIG. 15) at Asn-297
notes: also called glycoengineered Rituximab G11; bi-antennary complex type glycoform
B13: Rtx-G14 (antibody, human IgG1, kappa)
heavy: not shown
light: B1 light
modifications: homogeneous N-glycan G14 (bi-antennary complex type; structure only in FIG. 15) at Asn-297
notes: also called glycoengineered Rituximab G14; bi-antennary complex type glycoform
B14: Rtx-G3 (antibody, human IgG1, kappa)
heavy: not shown
light: B1 light
modifications: homogeneous non-fucosylated N-glycan G3 (hybrid type; structure in FIG. 15) at Asn-297
notes: also called glycoengineered Rituximab G3; hybrid type glycoform
B15: Rtx-G10 (antibody, human IgG1, kappa)
heavy: not shown
light: B1 light
modifications: homogeneous N-glycan G10 without core fucose (bi-antennary complex type with alpha 1,3 fucose on both GlcNAc and terminal di-galactose) at Asn-297
notes: also called glycoengineered Rituximab G10; bi-antennary complex type glycoform
B16: Rtx-G4 (antibody, human IgG1, kappa)
heavy: not shown
light: B1 light
modifications: homogeneous non-fucosylated N-glycan G4 (hybrid type; structure in FIG. 15) at Asn-297
notes: also called glycoengineered Rituximab G4; hybrid type glycoform
B17: Rtx-G1 (antibody, human IgG1, kappa)
heavy: not shown
light: B1 light
modifications: homogeneous non-fucosylated N-glycan G1 (high mannose type, Man5GlcNAc2) at Asn-297
notes: also called glycoengineered Rituximab G1; Man5GlcNAc2 glycoform

Target: T1, recombinant soluble FcγRIIIA (UniProt P08637 17-208, limits assumed)
T1 construct: also called FcγIIIA; FcTRIIIA
T1 sequence (P08637 17-208 limits assumed): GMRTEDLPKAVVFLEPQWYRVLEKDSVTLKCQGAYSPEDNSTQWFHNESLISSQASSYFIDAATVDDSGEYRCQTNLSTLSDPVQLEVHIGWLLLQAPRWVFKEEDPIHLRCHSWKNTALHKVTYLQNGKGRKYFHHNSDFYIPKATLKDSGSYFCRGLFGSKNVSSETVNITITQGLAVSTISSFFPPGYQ
Assay: ELISA; recombinant soluble FcγRIIIA coated on plate; the reference itself
Method: (§1) Microtiter plate (Corning® 96 Well Clear Flat Bottom Polystyrene High Bind, #9018) was coated with 50 ng/well of recombinant soluble FcγRIIIA diluted in 50 mM Bicarbonate/carbonate coating buffer (pH 10) overnight at 4° C. The plate was then washed 3 times with PBST (0.05% Tween 20 in PBS) and blocked with 5% BSA in PBST for 1 h at room temperature. The binding activity of glycoengineered antibodies (Rtx G1-G16) was determined for serial eight dilutions, starting with concentration of 100 μg/m1 in 2% BSA/PBST in duplicates. The plate was incubated for 1 h at room temperature, and washed 3 times with PBST. Next, 100 μl of goat anti-human IgG conjugated to horseradish peroxidase (Jackson immune, #109-035-088) in 2% BSA/PBST was added per well and incubated for 30 min at room temperature. The plate was washed 5 times with PBST then 100 μL per well of TMB substrate (eBioscience, #00-4201-56) was added and the resulting plate was incubated in the dark 15 min at room temperature. The absorbance value was determined at 450 nm in an ELISA reader (Molecular Devices Corporation, Sunnyvale, Calif., USA).

B1 was tested, and the “EC50 improvement Folds” value was 1 fold.

Target: T1, recombinant soluble FcγRIIIA
Assay: ELISA; recombinant soluble FcγRIIIA coated on plate; against commercial Rituximab
Method: as §1

Point of comparison: B13, “EC50 improvement Folds” value 33 fold. Against it:
- B2 — lower, ~1 fold
- B3 — higher, 34 fold
- B4 — higher, 35 fold
- B5 — lower, 22 fold
- B6 — higher, 35 fold
- B7 — lower, 32 fold
- B8 — higher, 34 fold
- B9 — lower, 17 fold
- B10 — the same, 33 fold
- B11 — lower, 32 fold
- B12 — lower, 5.4 fold
- B14 — lower, 3.2 fold
- B15 — lower, 26 fold
- B16 — lower, 2.7 fold
- B17 — lower, 6.5 fold

Target: T1, recombinant soluble FcγRIIIA
Assay: ELISA; recombinant soluble FcγRIIIA coated on plate, antibody titrated, anti-human IgG-HRP detection
Method: as §1

Point of comparison: B4, EC50 0.031 µg/mL. Against it:
- B1 — 34-fold higher, 1.04 µg/mL
- B2 — 34-fold higher, 1.05 µg/mL
- B3 — within 1.5-fold, 0.032 µg/mL
- B5 — 1.5-fold higher, 0.048 µg/mL
- B6 — the same, 0.031 µg/mL
- B7 — within 1.5-fold, 0.034 µg/mL
- B8 — within 1.5-fold, 0.032 µg/mL
- B9 — 2-fold higher, 0.061 µg/mL
- B10 — within 1.5-fold, 0.033 µg/mL
- B11 — within 1.5-fold, 0.034 µg/mL
- B12 — 6.4-fold higher, 0.199 µg/mL
- B13 — within 1.5-fold, 0.033 µg/mL
- B14 — 10-fold higher, 0.32 µg/mL
- B15 — within 1.5-fold, 0.043 µg/mL
- B16 — 13-fold higher, 0.394 µg/mL
- B17 — 5.2-fold higher, 0.16 µg/mL

Point of comparison: B4, “Maxi binding (A450 nm)” value 2.5 A450 nm. Against it:
- B1 — lower, 1.2 A450 nm
- B2 — lower, 1.1 A450 nm
- B3 — the same, 2.5 A450 nm
- B5 — higher, 2.6 A450 nm
- B6 — higher, 2.6 A450 nm
- B7 — lower, 2.3 A450 nm
- B8 — higher, 2.8 A450 nm
- B9 — lower, 2.4 A450 nm
- B10 — higher, 2.6 A450 nm
- B11 — lower, 2.3 A450 nm
- B12 — lower, 2.4 A450 nm
- B13 — lower, 2.4 A450 nm
- B14 — lower, 1.3 A450 nm
- B15 — lower, 2.2 A450 nm
- B16 — lower, 1.2 A450 nm
- B17 — lower, 1.4 A450 nm
